The record followed here is publication doi:10.1101/2021.05.25.445488 (bioRxiv, 2021).

The target of the assay is T1, GST-TULP3 full length (human, UniProt O75386-1 1-442).
T1 sequence (looked up): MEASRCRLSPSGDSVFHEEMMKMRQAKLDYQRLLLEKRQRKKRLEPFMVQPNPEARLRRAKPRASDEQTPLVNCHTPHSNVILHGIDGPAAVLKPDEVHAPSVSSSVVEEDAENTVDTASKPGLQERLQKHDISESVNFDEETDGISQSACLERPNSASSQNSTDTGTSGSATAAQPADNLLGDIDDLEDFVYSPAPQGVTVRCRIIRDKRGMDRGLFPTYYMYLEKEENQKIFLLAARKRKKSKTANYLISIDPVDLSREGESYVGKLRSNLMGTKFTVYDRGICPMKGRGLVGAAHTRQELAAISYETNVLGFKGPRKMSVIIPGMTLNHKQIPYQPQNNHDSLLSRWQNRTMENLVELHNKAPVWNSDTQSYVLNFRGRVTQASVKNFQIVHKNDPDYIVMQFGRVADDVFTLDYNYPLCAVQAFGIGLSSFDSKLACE
The experiment in a line: pull-down.

B1: GFP-ARL13B full length, insect cell purified (natural protein)
chain: not shown
In the case of B1, the binding result is “binds”.

B2: GFP-ARL13B N-terminus (1-298 aa), insect cell purified (domain or fragment, human, UniProt Q3SXY8-1 1-298, looked up)
chain: MFSLMASCCGWFKRWREPVRKVTLLMVGLDNAGKTATAKGIQGEYPEDVAPTVGFSKINLRQGKFEVTIFDLGGGIRIRGIWKNYYAESYGVIFVVDSSDEERMEETKEAMSEMLRHPRISGKPILVLANKQDKEGALGEADVIECLSLEKLVNEHKCLCQIEPCSAISGYGKKIDKSIKKGLYWLLHVIARDFDALNERIQKETTEQRALEEQEKQERAERVRKLREERKQNEQEQAELDGTSGLAELDPEPTNPFQPIASVIIENEGKLEREKKNQKMEKDSDGCHLKHKMEHEQI
On to B2, for which the binding result was “binds”.
